Results on four molecules are retold here after patent US20230192817A1 (ZHUHAI TRINOMAB PHARMACEUTICAL, published 2023).

In general, Kd refers to the concentration at which binding is half-saturated. The low end stands for tighter binding, the high end for weaker binding. Usually koff stands for a measure of how fast the partners let go of each other. A low value points to slow dissociation. A word on the kon: it is a measure of how fast the partners come together. Lower therefore signals slower complex formation. The EC50 (read off the curve) is the concentration at which the effect is half-maximal. Low values mean greater potency, high ones weaker potency. Usually EC50 stands for the concentration that produces a half-maximal response. A lower EC50 goes with an effect from little substance.

The target in assay [1] is T1, VZV gH/gL protein complex (CAMBRIDGEBIO, Cat No: 01-11-0045) (Varicella-Zoster Virus, UniProt P09260 18-802; P09308 22-159).
T1 construct: also called gHgL-Cambridge
T1 sequence 1: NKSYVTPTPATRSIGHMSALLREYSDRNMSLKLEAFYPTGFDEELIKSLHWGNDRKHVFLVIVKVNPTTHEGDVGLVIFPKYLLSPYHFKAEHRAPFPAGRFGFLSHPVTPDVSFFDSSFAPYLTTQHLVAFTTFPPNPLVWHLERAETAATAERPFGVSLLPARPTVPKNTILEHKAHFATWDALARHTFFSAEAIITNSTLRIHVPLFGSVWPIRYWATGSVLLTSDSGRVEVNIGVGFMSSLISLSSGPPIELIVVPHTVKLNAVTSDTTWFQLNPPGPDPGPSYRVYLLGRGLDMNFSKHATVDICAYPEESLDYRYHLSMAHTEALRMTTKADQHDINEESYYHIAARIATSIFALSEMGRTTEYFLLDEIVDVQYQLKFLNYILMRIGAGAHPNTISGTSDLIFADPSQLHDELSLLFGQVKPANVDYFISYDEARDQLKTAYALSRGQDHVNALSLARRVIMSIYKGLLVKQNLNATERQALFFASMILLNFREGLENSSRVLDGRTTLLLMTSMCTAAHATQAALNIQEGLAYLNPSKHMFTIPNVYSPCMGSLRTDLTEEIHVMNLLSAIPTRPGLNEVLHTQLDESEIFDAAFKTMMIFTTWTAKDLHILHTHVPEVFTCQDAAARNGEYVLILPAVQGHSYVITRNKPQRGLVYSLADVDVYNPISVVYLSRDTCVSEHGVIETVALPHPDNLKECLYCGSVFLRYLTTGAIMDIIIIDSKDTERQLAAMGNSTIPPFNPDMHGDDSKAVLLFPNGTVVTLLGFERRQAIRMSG
T1 sequence 2: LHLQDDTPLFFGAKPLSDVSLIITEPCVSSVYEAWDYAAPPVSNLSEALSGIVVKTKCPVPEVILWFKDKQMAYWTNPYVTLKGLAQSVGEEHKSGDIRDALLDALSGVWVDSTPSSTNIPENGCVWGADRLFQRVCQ
Description: SPR (Biacore), antibody captured on anti-human IgG (Fc) CM5 chip, gH/gL complex as analyte. A general note: In SPR one partner is held on a chip, and binding of the other changes the refractive index at the surface.

For assay [2], the target named is T1, VZV gH/gL protein complex …. Description: ELISA, plate coated with 100 ng/well VZV gH/gL complex, detection Goat-Anti-IgG-Fab-HRP. A general note: An ELISA detects its analyte on a solid surface through an enzyme-linked reagent.
The target is the same in assay [3]. Description: ELISA, culture supernatant.

B1: fully human VZV monoclonal antibody TRN1025 (antibody, V domains shown)
VH: QVQLVQSGGGLVQPGGSLRLSCVASGFTFSSYAMTWVRQAPGKGLEWVSTISGSGGSTFYADSVRGRFTISRDNSKNALYLQMNSLRAEDTAVYYCAKDRSYGGNQPFDYWGQGTLVTVSS
VL: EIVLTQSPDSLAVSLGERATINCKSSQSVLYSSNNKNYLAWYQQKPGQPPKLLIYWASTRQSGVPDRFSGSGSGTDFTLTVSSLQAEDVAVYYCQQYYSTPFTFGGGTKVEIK
Regarding B1, in assay [1], binding was put at a Kd of 13.4 nM, the koff stood at 0.000416 s⁻¹ and the kon stood at 31100 M⁻¹ s⁻¹. Further, in assay [2], the “EC50 (read off the curve)” value was approximately 0.5 µg/mL.

B2: fully human VZV monoclonal antibody TRN1024 (antibody, V domains shown)
VH: QVQLVQSGGGLVQPGGSLRLSCEASGFTFSSYWMSWVRQAPGKGLEWVANIKQDGSEKYYVDSVKGRFSISRDNAKNSLYLQMNSLRVEDTAVYYCAREGGGQGKWRLEYGMDVWGQGTTVIVSS
VL: not shown
B2: in assay [1], the affinity, expressed as Kd, was 36.7 nM; the koff was found to be 0.000621 s⁻¹; the kon is 16900 M⁻¹ s⁻¹. The “EC50 (read off the curve)” value in assay [2] was approximately 0.6 µg/mL.

B3: fully human VZV monoclonal antibody TRN1026 (antibody, V domains shown)
VH: QVQLVQSGAEVKKPGSSVKVSCKASGRTFSSYAYSWVRQAPGQGLEWMGRVIPVLGITNYAPKFQGKVTITVDKVTSTAFLELTGLKSDDTAVYYCARVSDDVLTGALDYWGQGTLVTVSS
VL: QSVLTQPPSVSGSPGQSVTISCTGTRSDVGSHNRVAWFQQSPGTAPKLMIYEVTNRPSGVPDRFSGSKSGNTASLTISGLQAEDEADYYCSSYTSTSTWVFGGGTKLTVL
Take B3: in assay [1], binding was put at a Kd of 2.66 nM, the koff is 0.000274 s⁻¹ and the kon came to 103000 M⁻¹ s⁻¹.

B4: antibody variant derived from antibody TRN1026 (antibody, V domains shown)
VH: QVQLVQSGAEVKKPGSSVKVSCKASGRTFSSYAYSWVRQAPGQGLEWMGRVIPVLGITNYAPKFQDKVTITADKVTSTAFLELTGLKSDDTAVYYCARVSDDVLTGALDYWGQGTLVTVSS
VL: QSVLTQPPSVSGSPGQSVTISFTGTRSDVGSHNRVAWFQQSPGTAPKLMIYEVTNRPSGVPDRFSGSKSGNTASLTISGLQAEDEADYYCSSYTSTSTWVFGGGTKLTVL
notes: also called Antibody derived from TRN1026
The molecule B4 showed an EC50 in assay [3] of 0.05 µg/mL.
